We go through four molecules from patent US20180369355A1 (TEXAS A AND M UNIVERSITY SYSTEM, published 2018).

Where no end group is shown, it is not given here.

B2: ClfA221-559 (other)
chain: VAADAPAAGTDITNQLTNVTVGIDSGTTVYPHQAGYVKLNYGFSVPNSAVKGDTFKITVPKELNLNGVTSTAKVPPIMAGDQVLANGVIDSDGNVIYTFTDYVNTKDDVKATLTMPAYIDPENVKKTGNVTLATGIGSTTANKTVLVDYEKYGKFYNLSIKGTIDQIDKTNNTYRQTIYVNPSGDNVIAPVLTGNLKPNTDSNALIDQQNTSIKVYKVDNAADLSESYFVNPENFEDVTNSVNITFPNPNQYKVEFNTPDDQITTPYIVVVNGHIDPNSKGDLALRSTLYGYNSNIIWRSMSWDNEVAFNNGSGSGDGIDKPVVPEQPDEPGEIEPIPE
notes: Recombinant, expressed in E. coli and purified by nickel chelate chromatography; the tag is not described; also called ClfA N2N3; ClfAN2N3

Assay [1] deals with ClfA221-559 (S. aureus strain Newman) (UniProt Q53653). Put plainly: SPR competition; 2 µM Tefibazumab with 1 µM ClfA221-559 over immobilized Fg (competitor: Fg).
Assay [2] has the same target. Briefly: SPR competition; Tefibazumab 0.1-2 µM with 1 µM ClfA221-559 over immobilized human Fg (competitor: Fg).
Assay [3] shares this target. Briefly: SPR competition: Tefibazumab mixed with 1 µM ClfA221-559, blocked ligand immobilized fibrinogen (Fg).
Assay [4] has the same target. Briefly: SPR competition; 2 µM Tefibazumab with 1 µM ClfA221-559 over immobilized D-fragment (competitor: D-fragment).
Assay [5] has the same target. Put plainly: SPR competition: Tefibazumab mixed with 1 µM ClfA221-559, blocked ligand immobilized Fg D-fragment (Fg-D).
Assay [6] shares this target. Briefly: SPR competition; Tefibazumab 0.1-2 µM with 1 µM ClfA221-559 over immobilized Fg D-fragment (competitor: D-fragment).
Assay [7] has the same target. Briefly: SPR competition; 2 µM Tefibazumab with 1 µM ClfA221-559 over captured GST-tagged Fg γ-peptide (competitor: GST-γ-peptide).
For assay [8] the target is unchanged. Briefly: SPR competition: Tefibazumab (0.1 to 2 µM) mixed with 1 µM ClfA221-559, binding of ClfA221-559 to immobilized fibrinogen (Fg) is blocked.
The target is the same in assay [9]. Briefly: SPR competition: Tefibazumab (0.1 to 2 µM) mixed with 1 µM ClfA221-559, binding of ClfA221-559 to immobilized Fg D-fragment (Fg-D) is blocked.
Assay [10] concerns the target T1, human fibrinogen (human, UniProt P02671 20-629; P02675 31-491; P02679 27-437).
T1 construct: also called Fg; intact Fg
T1 sequence 1: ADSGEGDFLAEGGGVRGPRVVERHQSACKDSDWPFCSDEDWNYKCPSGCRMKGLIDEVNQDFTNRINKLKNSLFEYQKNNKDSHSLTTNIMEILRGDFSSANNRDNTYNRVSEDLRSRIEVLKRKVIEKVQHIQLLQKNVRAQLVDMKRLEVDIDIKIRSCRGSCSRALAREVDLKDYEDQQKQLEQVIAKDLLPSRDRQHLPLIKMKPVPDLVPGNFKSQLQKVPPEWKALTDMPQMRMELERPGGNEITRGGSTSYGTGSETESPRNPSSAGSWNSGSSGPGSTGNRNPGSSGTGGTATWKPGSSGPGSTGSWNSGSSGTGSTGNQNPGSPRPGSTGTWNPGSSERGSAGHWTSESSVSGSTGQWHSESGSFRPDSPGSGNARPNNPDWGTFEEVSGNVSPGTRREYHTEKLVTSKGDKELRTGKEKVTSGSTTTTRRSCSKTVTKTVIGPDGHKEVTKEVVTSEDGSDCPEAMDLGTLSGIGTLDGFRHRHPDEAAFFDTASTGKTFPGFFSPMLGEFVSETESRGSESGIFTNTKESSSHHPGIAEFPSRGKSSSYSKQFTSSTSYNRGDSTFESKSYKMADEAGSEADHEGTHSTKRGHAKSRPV
T1 sequence 2: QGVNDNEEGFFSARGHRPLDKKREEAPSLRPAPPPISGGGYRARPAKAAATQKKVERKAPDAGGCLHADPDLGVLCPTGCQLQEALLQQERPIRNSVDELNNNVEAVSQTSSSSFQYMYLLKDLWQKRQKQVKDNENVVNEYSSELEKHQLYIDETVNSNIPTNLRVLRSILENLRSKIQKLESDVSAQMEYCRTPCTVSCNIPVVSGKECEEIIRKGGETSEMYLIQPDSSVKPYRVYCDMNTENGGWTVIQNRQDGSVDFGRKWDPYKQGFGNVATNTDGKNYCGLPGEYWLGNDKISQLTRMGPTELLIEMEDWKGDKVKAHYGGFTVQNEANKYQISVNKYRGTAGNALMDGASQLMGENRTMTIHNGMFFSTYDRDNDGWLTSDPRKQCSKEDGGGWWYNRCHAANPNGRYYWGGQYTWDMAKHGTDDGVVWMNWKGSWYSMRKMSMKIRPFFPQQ
T1 sequence 3: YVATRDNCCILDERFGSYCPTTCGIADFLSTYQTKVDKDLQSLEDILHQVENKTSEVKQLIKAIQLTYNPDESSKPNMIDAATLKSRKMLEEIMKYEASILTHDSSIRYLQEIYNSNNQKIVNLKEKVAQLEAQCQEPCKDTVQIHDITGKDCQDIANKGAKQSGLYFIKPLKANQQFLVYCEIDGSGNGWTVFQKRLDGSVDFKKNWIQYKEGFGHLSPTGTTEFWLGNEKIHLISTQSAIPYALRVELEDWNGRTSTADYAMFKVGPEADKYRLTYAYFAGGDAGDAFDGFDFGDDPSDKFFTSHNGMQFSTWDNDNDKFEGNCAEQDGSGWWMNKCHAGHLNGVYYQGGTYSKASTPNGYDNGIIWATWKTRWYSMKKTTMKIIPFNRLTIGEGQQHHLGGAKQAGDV
Briefly: ITC; full-length Fg against the synthetic C-terminal γ-chain peptide. (In general: Isothermal titration calorimetry measures the heat released or taken up as one component is titrated into another.)

The target of assay [11] is T1, human fibrinogen. Put plainly: ITC, ClfACC titrated into fibrinogen in the cell; OneSites fit box.
For assay [12], the target named is T1, human fibrinogen. Put plainly: ITC, ClfACC titrated into fibrinogen in the cell; OneSites fit box, unit not given.
The target of assay [13] is T1, human fibrinogen. Briefly: ITC; full-length Fg in the cell, ClfACC titrated in, 30 °C; full-length Fg in the cell, ClfACC titrated in.
Assay [14] deals with T1, human fibrinogen. Briefly: SPR; immobilized Fg against GST-γ-peptide. For orientation: In SPR one partner is held on a chip, and binding of the other changes the refractive index at the surface.
Assay [15] addresses T2, Fg D-fragment (UniProt P02671 130-216; P02675 164-491; P02679 114-437).
T2 construct: domain: D-fragment; also called D-domain
T2 sequence 1: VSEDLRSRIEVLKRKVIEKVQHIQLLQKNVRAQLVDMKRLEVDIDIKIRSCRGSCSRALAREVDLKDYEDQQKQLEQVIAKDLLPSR
T2 sequence 2: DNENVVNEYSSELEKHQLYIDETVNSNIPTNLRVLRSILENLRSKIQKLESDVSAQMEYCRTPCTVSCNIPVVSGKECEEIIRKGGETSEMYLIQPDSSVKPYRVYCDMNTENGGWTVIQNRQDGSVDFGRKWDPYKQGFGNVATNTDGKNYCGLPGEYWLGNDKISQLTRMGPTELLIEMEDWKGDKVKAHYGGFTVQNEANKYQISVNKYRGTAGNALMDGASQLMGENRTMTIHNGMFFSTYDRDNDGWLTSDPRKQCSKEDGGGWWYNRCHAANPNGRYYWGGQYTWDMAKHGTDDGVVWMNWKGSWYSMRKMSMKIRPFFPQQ
T2 sequence 3: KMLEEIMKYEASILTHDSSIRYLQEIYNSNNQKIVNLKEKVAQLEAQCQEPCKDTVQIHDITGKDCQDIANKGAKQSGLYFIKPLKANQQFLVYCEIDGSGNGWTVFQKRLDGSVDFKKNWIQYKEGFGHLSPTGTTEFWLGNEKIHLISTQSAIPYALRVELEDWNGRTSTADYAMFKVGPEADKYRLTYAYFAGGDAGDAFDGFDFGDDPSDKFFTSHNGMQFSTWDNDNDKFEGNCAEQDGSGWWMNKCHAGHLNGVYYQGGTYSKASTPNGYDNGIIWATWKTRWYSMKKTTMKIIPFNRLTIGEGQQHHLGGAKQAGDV
Briefly: SPR; immobilized Fg D-fragment against GST-γ-peptide.

Assay [16] addresses T1, human fibrinogen. Briefly: SPR; ClfA221-559 over immobilized intact Fg; immobilized intact Fg.
For assay [17], the target named is T2, Fg D-fragment. Briefly: SPR; ClfA221-559 over immobilized Fg D-fragment; immobilized Fg D-fragment.
The assay “ClfA221-559” concerns the target B2. Put plainly: SPR (Biacore), drawn table Ligand/analyte: GST-γ-peptide on the surface, ClfA221-559 as analyte.
The target of the next assay is T3, ClfA370-559 (S. aureus, UniProt Q53653 370-559).
T3 construct: also called recombinant form of N3
T3 sequence: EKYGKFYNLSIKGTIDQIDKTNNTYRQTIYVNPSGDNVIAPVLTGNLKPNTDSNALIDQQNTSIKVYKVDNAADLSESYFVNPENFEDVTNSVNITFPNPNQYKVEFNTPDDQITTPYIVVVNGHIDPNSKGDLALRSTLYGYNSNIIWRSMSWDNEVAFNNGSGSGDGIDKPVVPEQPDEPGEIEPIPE
Briefly: SPR (Biacore), drawn table Ligand/analyte: GST-γ-peptide on the surface, ClfA N3 domain (ClfA370-559) as analyte.

A word on the IC50: it is the concentration at which inhibition is half-maximal. As usually defined, the Kd is the free concentration of one partner at which half of the binding sites on the other are occupied at equilibrium, for simple one-to-one binding. Higher therefore signals a looser complex.

For the molecule Tefibazumab (antibody), the percent inhibition stood at 60% in [1], 70% in assay [4] and 25% in assay [7]. Moreover, the half-maximal inhibitory concentration (IC50) is 30 nM in assay [2], 30 nM in assay [6], 30.2 nM in [8] and 29.6 nM in assay [9]. The IC50 (read off the curve) in assay [3] and in [5] was 300 nM throughout.

B1: ClfACC (other)
chain: GTDITNQLTNVTVGIDSGTTVYPHQAGYVKLNYGFSVPNSAVKGDTFKITVPKELNLNGVTSTAKVPPIMAGDQVLANGVIDSDGNVIYTFTDYVNTKCDVKATLTMPAYIDPENVKKTGNVTLATGIGSTTANKTVLVDYEKYGKFYNLSIKGTIDQIDKTNNTYRQTIYVNPSGDNVIAPVLTGNLKPNTDSNALIDQQNTSIKVYKVDNAADLSESYFVNPENFEDVTNSVNITFPNPNQYKVEFNTPDDQITTPYIVVVNGHIDPNSKGDLALRSTLYGYNSNIIWRSMSWDNEVAFNNGSGSGDGIDCPVVP
modifications: engineered disulfide bond between C327 and C541
notes: also called disulfide bond-closed ClfACC; closed form of ClfA N2N3
In the case of B1, the “fold higher affinity against the γ-chain peptide” value with human fibrinogen [10] came to 30 fold. The molecule also registered a N with human fibrinogen [11] of 1.57. Besides, the ΔH in the assay with human fibrinogen [12] is -13300. This molecule returned a Kd with human fibrinogen [13] of 300 nM.
B2: the “fold difference in KD against the γ-peptide” value in the assay with human fibrinogen [14] and with Fg D-fragment [15] was 4 to 7 fold each time. Besides, the figures for the Kd in the assay with human fibrinogen [16] and with Fg D-fragment [17] were 980 nM and 680 nM, respectively.

B3: GST-tagged Fg γ-peptide (other)
chain: {GST}-GEGQQHHLGGAKQAGDV
notes: domain: γ-peptide (carboxy terminal of the γ-chain); 'expressed and purified as described earlier'; also called GST-γ-peptide; GST tagged γ-peptide; not shown: GST tag
With B3, the results for the dissociation constant Kd in the assay with ClfA221-559 and with ClfA370-559 were 4300 nM and 54000 nM, respectively.
